Series [1] in a line: Stability in mouse whole blood. Particulars: 0.12 mg/mL Dox conc, 37° C. up to 1 h, 0.5 mM EDTA. It counts as in vitro ADME. On the procedure:
FIG. 13 illustrates stability in mouse whole blood. Freshly collected whole blood was processed by ultrafiltration through 10K MW cutoff membranes after up to 1 h incubation with HerDox or Dox at 37° C. As 0.5 mM EDTA was used as an anticoagulant, HerDox in EDTA alone (-blood) was processed in parallel. Bars represent fluorescence of retained (retentates) or released (filtrates) Dox as a percentage of the total fluorescence of each sample. Scale of Y-axis is adjusted to show presence of filtrate samples. N=3 per treatment.
To assess the feasibility of measuring in vivo stability, the inventors incubated HerDox (at 0.12 mg/mL final Dox conc) or free Dox at equivalent concentration in freshly collected whole blood from mice and incubated the mixtures at 37° C. up to 1 h. As the anticoagulant, 0.5 mM EDTA, was present in the blood collection, parallel samples were incubated at 37° C. in EDTA alone. Samples representing input HerDox (before incubation in blood) were incubated at 37° C. in HEPES-buffered saline. All samples were then centrifuged through 10K MW cutoff filters and Dox fluorescence measured in retentates and filtrates (SpectraMax M2 from Molecular Devices). […] Likewise, there is no appreciable loss of Dox from HerDox retentates from samples incubated in blood compared to those incubated in saline or EDTA alone (FIG. 13).

In the next series the test system is HER2+ tumors. Briefly: HerDox vs Dox biodistribution by Dox fluorescence imaging. It counts as in vivo, mice. On the procedure: FIGS. 11 (A)-(B) illustrates preferential targeting of HerDox to HER2+ tumors. Tumor-bearing mice were injected with 0.75 nmoles of HerDox or Dox via the tail vein and imaged with a custom small animal imager. FIG. 11 (A) depicts imaging of live mice after IV delivery of HerDox. Tumors are indicated by arrows. FIG. 11 (B) depicts imaging of tumors and tissues harvested at 3 h after injection of HerDox or Dox. Fluorescence signal from Dox is pseudo-colored according to the color bar, with a shift toward 100 indicating high fluorescence intensity. FIG. 11 (B) illustrates a comparison of the targeted delivery of Dox to HER2+ breast cancer cells with minimal delivery to other organs and tissues using a delivery system in accordance with an embodiment of the present invention (left panel), as compared with Dox administered alone (right panel).
Dox emits a red fluorescence upon appropriate wavelength excitation, which can be used to detect biodistribution after systemic delivery of HerDox. Mice bearing 4-week old) tumors (˜700-800 mm^3) received a single tail vein injection of Dox or HerDox ([…] with respect to Dox cone) and images of live mice captured in real time, or of organs/tissues harvested at ˜3 h postinjection were acquired using a customized macro-illumination and detection system. Fluorescence was evident throughout the body at 10 min after HerDox injection, then quickly accumulated at the tumors by 20 min and remained detectable in the tumors up to 100 min after injection (FIG. 11 (A)).

A further series has as its system hearts of mice. The experiment in a line: Cardiac tissue histology and echocardiography. The class given is in vivo. Conditions: treated mice. The source says:
FIGS. 12 (A)-(D) illustrates comparison of HerDox and Dox on (A) tumor growth, (B) animal weight, (C) cardiac tissue, and (D) cardiac function.
At 25 days following injections, tumors and organs were harvested and processed for histochemistry. It is established that Dox can induce acute and long-term cardiotoxicity, therefore, the inventors examined the hearts of mice treated with HerDox or Dox.

Where [2] appears, read: harvested at 3 h after injection.
[3] abbreviates: single tail vein injection, live imaging.

B1: HerDox: non-covalent complex of HerPBK10, a small double-stranded nucleic acid and intercalated Dox (conjugate)
chain: LPPRLKEMKSQESAAGSKLVLRCETSSEYSSLRFKWFKNGNELNRKNKPQNIKIQKKPGKSELRINKASLADSGEYMCKVISKLGNDSASANITIVESNEIITGMPASTEGAYVSSESPIRISVSTEGANTSSSTSTSTTGTSHLVKCAEKEKTFCVNGGECFMVKDLSNPSRYLCKCQPGFTGARCTENVPMKVQNQEKAEELYMRRAAMYEEGPPPSYESVVSAAPVAAALGSPFDAPLDPPFVPPRYLRPTGGRNSIRYSELAPLFDTTRVYLVDNKSTDVASLNYQNDHSNFLTTVIQNNDYSPGEASTQTINLDDRSHWGGDLKTILHTNMPNVNEFMFTNKFKARVMVSRLPTKDNQVELKYEWVEFTLPEGNYSETMTIDLMNNAIVEHYLKVGRQNGVLESDIGVKFDTRNFRLGFDPVTGLVMPGVYTNEAFHPDIILLPGCGVDFTHSRLSNLLGIRKRQPFQEGFRITYDDLEGGNIPALLDVDAYQASLKDDTEQGGGGAGGSNSSGSGAEENSNAAAAAMQPVEDMNDHAIRGDTFATRAEEKRAEAEAAAEAAAPAAQPEVEKPQKKPVIKPLTEDSKKRSYNLISNDSTFTQYRSWYLAYNYGDPQTGIRSWTLLCTPDVTCGSEQVYWSLPDMMQDPVTFRSTRQISNFPVVGAELLPVHSKSFYNDQAVYSQLIRQFTSLTHVFNRFPENQILARPPAPTITTVSENVPALTDHGTLPLRNSIGGVQRVTITDARRRTCPYVYKALGIVSPRVLSSRTFKKKKKKKKKK
modifications: left off: small tags and cut ends
notes: non-covalent complex of HerPBK10, a small double-stranded nucleic acid and intercalated Dox
B1: the “loss of Dox from the conjugate in whole blood” value in series [1] is “no detectable loss of Dox”. Further, in the series with HER2+ tumors (setting [2]), the “Dox fluorescence in heart, spleen, lungs, and skeletal muscle” value is recorded as “did not exhibit any fluorescence”; the “Dox fluorescence in kidneys” value is listed as “barely detectable”; the “Dox fluorescence in liver” value was “substantially lower levels of fluorescence”; the “Dox fluorescence in tumors” value is listed as “intense fluorescence”. Further, in the series on HER2+ tumors (setting [3]), the “time by which fluorescence accumulated at the tumors” value is on record as at most 20 min and the “time fluorescence remained detectable in the tumors” value is listed as “up to 100 min”. In addition, in the series with hearts of mice, the “echocardiogram: stroke volume, cardiac output, left ventricular internal dimension and volume” value is on record as “no effect”.
